In patent US20240190989A1 (BEIGENE SWITZERLAND, published 2024):
Changes are numbered by the printed parent chain. Numbers in names are those of the source. Values belong to the binder of their own block, whether it stands above or below them.

Assays:
[1] = target: full-length human CD137 on cells (Hut78/huCD137, HEK293 transfectants, JK-NFKB-CD137) (human, UniProt Q07011 24-255); assay: cell-based or functional assay
human CD137 ECD-mIgG2a [2] = target: T1, human CD137 ECD-mIgG2a (human); assay: SPR, A-CEAxCD137 format
T1 construct: ECD 24-183 of huCD137 fused to mouse IgG2a Fc; also called huCD137-mIgG2a; huCD137
Protocol: (§1) Characterization of anti-huCD137 VH domain antibodies were made by SPR assays using BIAcore™ T-200 (GE Life Sciences). Briefly, anti-human IgG (Fc) antibody was immobilized on an activated CM5 biosensor chip (Cat.: BR100839, GE Life Sciences). Anti-huCD137 domain antibodies were flowed over the chip surface and captured by anti-human IgG (Fc) antibody. […] The equilibrium dissociation constant (KD) was calculated as the ratio koff/kₒₙ.
(§2) Affinity comparison on CD137 affinity matured variants was made by SPR assays using BIAcore™ T-200 (GE Life Sciences) and flow cytometry as described.

human CD137 ECD-mIgG2a [3] = target: T1, human CD137 ECD-mIgG2a; assay: SPR, Fc-fusion VH captured
Protocol: as §1, §2

T1 sequence (chain, as listed by the source limits assumed): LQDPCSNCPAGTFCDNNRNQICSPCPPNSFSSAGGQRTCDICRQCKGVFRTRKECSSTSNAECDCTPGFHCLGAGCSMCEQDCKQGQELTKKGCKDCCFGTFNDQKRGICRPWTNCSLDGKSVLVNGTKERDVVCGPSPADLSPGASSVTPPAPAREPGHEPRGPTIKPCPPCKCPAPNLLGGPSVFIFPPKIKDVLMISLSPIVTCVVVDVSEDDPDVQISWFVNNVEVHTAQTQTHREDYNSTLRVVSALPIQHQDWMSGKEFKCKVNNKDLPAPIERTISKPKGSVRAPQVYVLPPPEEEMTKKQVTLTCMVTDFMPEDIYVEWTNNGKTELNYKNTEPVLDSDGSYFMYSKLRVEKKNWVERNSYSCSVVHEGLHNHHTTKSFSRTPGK
Sequence of full-length human CD137 on cells (Hut78/huCD137, HEK293 transfectants, JK-NFKB-CD137) (Q07011 24-255 limits assumed): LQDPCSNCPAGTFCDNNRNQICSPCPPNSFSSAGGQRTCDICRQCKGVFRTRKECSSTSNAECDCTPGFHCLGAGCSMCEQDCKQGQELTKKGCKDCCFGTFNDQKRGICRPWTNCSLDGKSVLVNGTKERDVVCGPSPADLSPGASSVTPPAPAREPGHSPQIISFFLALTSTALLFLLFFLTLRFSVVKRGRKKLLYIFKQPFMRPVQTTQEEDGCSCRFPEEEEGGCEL

B1: BE-562 (E-muFc-BGA-5623) (bispecific antibody)
heavy: EVQLLESGGGLVQPGGSLRLSCAASGFTVSAEDVGWVRQAPGKGLEWVSAILDKGGSTYYAESVKGRFTISRDNAKNTLYLQMSSLRAEDTAVYYCARIVYHAGGGVTFDTRGQGTQVTVSSEPKSSDKTHTCPPCPAPPAAGPSVFLFPPKPKDTLMISRTPEVTCVVVDVSHEDPEVKFNWYVDGVEVHNAKTKPREEQYNSTYRVVSVLTVLHQDWLNGKEYKCKVSNKALAAPIEKTISKAKGQPREPQVYTLPPSREEMTKNQVSLTCLVKGFYPSDIAVEWESNGQPENNYKTTPPVLDSDGSFFLYSKLTVDKSRWQQGNVFSCSVMHEALHNHYTQKSLSLSPGKGGGGSQVQLVQSGAEVKKPGASVKVSCKASGYIFTSYYLHWVRQAPGQGLEWIGYINPQTGKTSYAQKFQGRVTMTRDTSTSTVYMELSSLRSEDTAVYYCAREYGNYNYPLDYWGQGTLVTVSSASTKGPSVFPLAPSSKSTSGGTAALGCLVKDYFPEPVTVSWNSGALTSGVHTFPAVLQSSGLYSLSSVVTVPSSSLGTQTYICNVNHKPSNTKVDKKVEPKSCD
light: DIQMTQSPSSLSASVGDRVTITCRASENQYGYLAWYQQKPGKVPKLLIYNYKNLVEGVPSRFSGSGSGTDFTLTISSLQPEDVATYYCQHHLGTPYTFGQGTKVEIKRTVAAPSVFIFPPSDEQLKSGTASVVCLLNNFYPREAKVQWKVDNALQSGNSQESVTEQDSKDSTYSLSSTLTLSKADYEKHKVYACEVTHQGLSSPVTKSFNRGEC
Functional assay EC50 (PBMC cytokine release, in vitro CD137 activation) [1]: 4.69 µg/mL

B2: BE-718 (A-BGA-5623-BGA-5623) (bispecific antibody, human IgG1, kappa)
heavy: QVQLVQSGAEVKKPGASVKVSCKASGYIFTSYYLHWVRQAPGQGLEWIGYINPQTGKTSYAQKFQGRVTMTRDTSTSTVYMELSSLRSEDTAVYYCAREYGNYNYPLDYWGQGTLVTVSSASTKGPSVFPLAPSSKSTSGGTAALGCLVKDYFPEPVTVSWNSGALTSGVHTFPAVLQSSGLYSLSSVVTVPSSSLGTQTYICNVNHKPSNTKVDKKVEPKSCDKTHTCPPCPAPPAAGPSVFLFPPKPKDTLMISRTPEVTCVVVDVSHEDPEVKFNWYVDGVEVHNAKTKPREEQYNSTYRVVSVLTVLHQDWLNGKEYKCKVSNKALAAPIEKTISKAKGQPREPQVYTLPPSREEMTKNQVSLTCLVKGFYPSDIAVEWESNGQPENNYKTTPPVLDSDGSFFLYSKLTVDKSRWQQGNVFSCSVMHEALHNHYTQKSLSLSPGKGGGGSEVQLLESGGGLVQPGGSLRLSCAASGFTVSAEDVGWVRQAPGKGLEWVSAILDKGGSTYYAESVKGRFTISRDNAKNTLYLQMSSLRAEDTAVYYCARIVYHAGGGVTFDTRGQGTQVTVSSGGGGSEVQLLESGGGLVQPGGSLRLSCAASGFTVSAEDVGWVRQAPGKGLEWVSAILDKGGSTYYAESVKGRFTISRDNAKNTLYLQMSSLRAEDTAVYYCARIVYHAGGGVTFDTRGQGTQVTVSS
light: B1 light
Functional assay EC50 (PBMC cytokine release, in vitro CD137 activation) [1]: 0.01 µg/mL

B3: BE-942 (ZW 1+1) (bispecific antibody, human IgG1, L234A L235A)
heavy: QVQLVQSGAEVKKPGASVKVSCKASGYIFTSYYLHWVRQAPGQGLEWIGYINPQTGKTSYAQKFQGRVTMTRDTSTSTVYMELSSLRSEDTAVYYCAREYGNYNYPLDYWGQGTLVTVSSASTKGPSVFPLAPSSKSTSGGTAWLGCEVTDYFPEPVTVSWNSGALTSGVHTFPAVLESSGLYSLSSVVTVPSSSLGTQTYICNVNHKPSNTKVDKKVEPKSCDKTHTCPPCPAPEAAGGPSVFLFPPKPKDTLMISRTPEVTCVVVSVSHEDPEVKFNWYVDGVEVHNAKTKPREEQYNSTYRVVSVLTVLHQDWLNGKEYKCKVSNKALPAPIEKTISKAKGQPREPQVYVLPPSRDELTKNQVSLLCLVKGFYPSDIAVEWESNGQPENNYLTWPPVLDSDGSFFLYSKLTVDKSRWQQGNVFSCSVMHEALHNHYTQKSLSLSPGK
light: B1 light with F116A, Q124R, L135V, T178R
chain: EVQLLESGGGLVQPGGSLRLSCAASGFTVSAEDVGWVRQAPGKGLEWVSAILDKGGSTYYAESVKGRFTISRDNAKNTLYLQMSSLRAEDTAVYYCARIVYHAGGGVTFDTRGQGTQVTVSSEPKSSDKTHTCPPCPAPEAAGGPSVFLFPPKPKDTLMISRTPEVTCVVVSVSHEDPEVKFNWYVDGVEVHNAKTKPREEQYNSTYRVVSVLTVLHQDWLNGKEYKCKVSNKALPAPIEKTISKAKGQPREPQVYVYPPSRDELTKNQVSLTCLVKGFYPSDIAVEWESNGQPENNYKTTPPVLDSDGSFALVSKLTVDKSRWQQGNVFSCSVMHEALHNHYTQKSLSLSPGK
Functional assay EC50 (PBMC cytokine release, in vitro CD137 activation) [1]: 25.1 µg/mL

B4: BE-740 (A-IgG1-BGA-5623) (bispecific antibody)
heavy: not shown
light: B1 light
Functional assay EC50 (PBMC cytokine release, in vitro CD137 activation) [1]: 0.17 µg/mL

B5: BE-244 (A-(G4S)3-BGA-5623) (bispecific antibody, human IgG1, kappa)
heavy: QVQLVQSGAEVKKPGASVKVSCKASGYIFTSYYLHWVRQAPGQGLEWIGYINPQTGKTSYAQKFQGRVTMTRDTSTSTVYMELSSLRSEDTAVYYCAREYGNYNYPLDYWGQGTLVTVSSASTKGPSVFPLAPSSKSTSGGTAALGCLVKDYFPEPVTVSWNSGALTSGVHTFPAVLQSSGLYSLSSVVTVPSSSLGTQTYICNVNHKPSNTKVDKKVEPKSCDKTHTCPPCPAPPAAGPSVFLFPPKPKDTLMISRTPEVTCVVVDVSHEDPEVKFNWYVDGVEVHNAKTKPREEQYNSTYRVVSVLTVLHQDWLNGKEYKCKVSNKALAAPIEKTISKAKGQPREPQVYTLPPSREEMTKNQVSLTCLVKGFYPSDIAVEWESNGQPENNYKTTPPVLDSDGSFFLYSKLTVDKSRWQQGNVFSCSVMHEALHNHYTQKSLSLSPGKGGGGSGGGGSGGGGSEVQLLESGGGLVQPGGSLRLSCAASGFTVSAEDVGWVRQAPGKGLEWVSAILDKGGSTYYAESVKGRFTISRDNAKNTLYLQMSSLRAEDTAVYYCARIVYHAGGGVTFDTRGQGTQVTVSS
light: B1 light
Functional assay EC50 (PBMC cytokine release, in vitro CD137 activation) [1]: 0.18 µg/mL

B6: BE-755 (ZW1+2) (bispecific antibody, human IgG1, L234A L235A)
heavy: B3 heavy
light: B1 light with F116A, Q124R, L135V, T178R
chain: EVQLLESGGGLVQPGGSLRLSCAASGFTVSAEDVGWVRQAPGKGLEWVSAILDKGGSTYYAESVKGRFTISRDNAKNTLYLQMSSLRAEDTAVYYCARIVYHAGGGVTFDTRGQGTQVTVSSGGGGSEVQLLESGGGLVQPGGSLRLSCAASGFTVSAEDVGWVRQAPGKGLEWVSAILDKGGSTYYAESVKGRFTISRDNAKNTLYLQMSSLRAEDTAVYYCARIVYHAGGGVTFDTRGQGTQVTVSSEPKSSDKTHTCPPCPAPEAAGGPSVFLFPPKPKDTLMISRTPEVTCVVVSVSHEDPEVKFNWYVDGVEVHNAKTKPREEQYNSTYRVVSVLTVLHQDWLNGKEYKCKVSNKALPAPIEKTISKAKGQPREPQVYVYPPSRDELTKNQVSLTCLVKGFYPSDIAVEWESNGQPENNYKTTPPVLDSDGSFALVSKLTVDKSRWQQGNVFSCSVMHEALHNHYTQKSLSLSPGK
Functional assay EC50 (PBMC cytokine release, in vitro CD137 activation) [1]: 1.16 µg/mL

B7: BE-375 (E-IgG1-BGA-5623) (bispecific antibody)
heavy: not shown
light: B1 light
Functional assay EC50 (PBMC cytokine release, in vitro CD137 activation) [1]: 1.76 µg/mL

B16: BGA-3285-mutFc (Fc fusion)
chain: EVQLLESGGGLVQPGGSLRLSCAASGFTISAEDVGWVRQAPGKGLEWVSAILDFGGSTYYAESVKGRFTISRDNAKNTLYLQMSSLRAEDTAVYYCARVVYHAGGGVTFDTRGQGTQVTVSSGGGGSDKTHTCPPCPAPPAAGPSVFLFPPKPKDTLMISRTPEVTCVVVDVSHEDPEVKFNWYVDGVEVHNAKTKPREEQYNSTYRVVSVLTVLHQDWLNGKEYKCKVSNKALAAPIEKTISKAKGQPREPQVYTLPPSREEMTKNQVSLTCLVKGFYPSDIAVEWESNGQPENNYKTTPPVLDSDGSFFLYSKLTVDKSRWQQGNVFSCSVMHEALHNHYTQKSLSLSPGK
Kd (human CD137 ECD-mIgG2a [3]): 186 nM

B17: BGA-4988-mutFc (Fc fusion)
chain: B16 chain with I29V, F54R, F109Y
Kd (human CD137 ECD-mIgG2a [3]): 1030 nM

B18: BGA-9468-mutFc (Fc fusion)
chain: B16 chain with I29V, F54S, A103S, T111L
Kd (human CD137 ECD-mIgG2a [3]): 190 nM

B19: BGA-7746-mutFc (Fc fusion)
chain: B16 chain with I29V
Kd (human CD137 ECD-mIgG2a [3]): 193 nM

B20: BGA-7916-mutFc (Fc fusion)
chain: B16 chain with I29V, F54S, F109Y
Kd (human CD137 ECD-mIgG2a [3]): 87.7 nM

B21: BGA-5385-mutFc (Fc fusion)
chain: B16 chain with I29L, F54H, V100I, F109Y, T111Y
Kd (human CD137 ECD-mIgG2a [3]): 100 nM

B22: BGA-3849-mutFc (Fc fusion)
chain: B16 chain with I29L, A31H, F54S, V99Y
Kd (human CD137 ECD-mIgG2a [3]): 76.3 nM

B23: BGA-3953-mutFc (Fc fusion)
chain: B16 chain with I29V, F54S, V99I
Kd (human CD137 ECD-mIgG2a [3]): 48.3 nM

B24: BGA-8425-mutFc (Fc fusion)
chain: B16 chain with I29L, F54S, F109Y, T111Y
Kd (human CD137 ECD-mIgG2a [3]): 93.4 nM

B25: BGA-9442-mutFc (Fc fusion)
chain: B16 chain with F54S, V99Y, T111L
Kd (human CD137 ECD-mIgG2a [3]): 151 nM

Results, then the binder that gave them:

Kd (human CD137 ECD-mIgG2a [2]): 873 nM
B8: Format A BGA-9468 (bispecific antibody, human IgG1, kappa)
heavy: QVQLVQSGAEVKKPGASVKVSCKASGYIFTSYYLHWVRQAPGQGLEWIGYINPQTGKTSYAQKFQGRVTMTRDTSTSTVYMELSSLRSEDTAVYYCAREYGNYNYPLDYWGQGTLVTVSSASTKGPSVFPLAPSSKSTSGGTAALGCLVKDYFPEPVTVSWNSGALTSGVHTFPAVLQSSGLYSLSSVVTVPSSSLGTQTYICNVNHKPSNTKVDKKVEPKSCDKTHTCPPCPAPPAAGPSVFLFPPKPKDTLMISRTPEVTCVVVDVSHEDPEVKFNWYVDGVEVHNAKTKPREEQYNSTYRVVSVLTVLHQDWLNGKEYKCKVSNKALAAPIEKTISKAKGQPREPQVYTLPPSREEMTKNQVSLTCLVKGFYPSDIAVEWESNGQPENNYKTTPPVLDSDGSFFLYSKLTVDKSRWQQGNVFSCSVMHEALHNHYTQKSLSLSPGKGGGGSEVQLLESGGGLVQPGGSLRLSCAASGFTVSAEDVGWVRQAPGKGLEWVSAILDSGGSTYYAESVKGRFTISRDNAKNTLYLQMSSLRAEDTAVYYCARVVYHSGGGVTFDLRGQGTQVTVSS
light: B1 light

Kd (human CD137 ECD-mIgG2a [2]): 798 nM
B9: Format A BGA-3285 (bispecific antibody, human IgG1, kappa)
heavy: B8 heavy with V483I, S508F, S557A, L565T
light: B1 light

Kd (human CD137 ECD-mIgG2a [2]): 245 nM
B10: Format A BGA-7746 (bispecific antibody, human IgG1, kappa)
heavy: B8 heavy with S508F, S557A, L565T
light: B1 light

Kd (human CD137 ECD-mIgG2a [2]): 189 nM
B11: Format A BGA-8425 (bispecific antibody, human IgG1, kappa)
heavy: B8 heavy with V483L, S557A, F563Y, L565Y
light: B1 light

Kd (human CD137 ECD-mIgG2a [2]): 115 nM
B12: Format A BGA-3953 (bispecific antibody, human IgG1, kappa)
heavy: B8 heavy with V553I, S557A, L565T
light: B1 light

Kd (human CD137 ECD-mIgG2a [2]): 164 nM
B13: Format A BGA-9442 (bispecific antibody, human IgG1, kappa)
heavy: B8 heavy with V483I, V553Y, S557A
light: B1 light

Kd (human CD137 ECD-mIgG2a [2]): 203 nM
B14: Format A BGA-7916 (bispecific antibody, human IgG1, kappa)
heavy: B8 heavy with S557A, F563Y, L565Y
light: B1 light

Kd (human CD137 ECD-mIgG2a [2]): 154 nM
B15: Format A BGA-5385 (bispecific antibody, human IgG1, kappa)
heavy: B8 heavy with V483L, S508H, V554I, S557A, L565T
light: B1 light
